# Reference: publication PMC9107513
# Key:
# [1] = MS of immunoprecipitated endogenous RYR1, C2C12; settings: glycan lost; control: control siRNA
# [2] = western blot, endogenous RYR1, C2C12 myotubes ± MG-132; settings: glycan lost; control: vector / control siRNA
# [3] = IP of tagged RYR1, blot of tagged ubiquitin, MG-132; settings: glycan lost; control: vector / control siRNA
# [4] = western blot, exogenous wild-type RYR1 in C2C12; settings: glycan lost; control: vector / control siRNA
# [5] = IP of exogenous RYR1, phospho-Ser/Thr blot; settings: glycan lost; control: control siRNA
substance,measurement,setting,value
RYR1: OGT knockdown,other: phosphorylation at T4338,[1],increases
RYR1: siRNA-mediated knockdown of OGT,expression_or_secretion,[2],increases
human RYR1: OGT knockdown,other: ubiquitination,[3],decreases
same,expression_or_secretion,[4],increases
same,other: Ser/Thr phosphorylation,[5],increases
